Reference: the supplement of paper PMC7877785
± gives the uncertainty stated by the source.

Experiment: self-splicing fitness, log relative to wild type (ln ratio); higher = more splicing; Tetrahymena group I intron in knt gene, E. coli kanamycin selection, DiMSum; sequences stand for … in CUCUCU…GGAGGGAAAAGUUAUCAGGCAUGCACCUGGUAGCUAGUCUUUAAACCAAUAGAUUGCAUCGGUUUAAAAGGCAAGACCGUCAAAUUGCGGGAAAGGGGUCAACAGCCGUUCAGUACCAAGUCUCAGGGGAAACUUUGAGAUGGCCUUGCAAAGGGUAUGGUAAUAAGCUGACGGACAUGGUCCUAACCACGCAGCCAAGUCCUAAGUCAACAGAUCUUCUGUUGAUAUGGAUGCAGUUCACAGACUAAAUGUCGGUCGGGGAAGAUGUAUUCUUCUCAUAAGAUAUAGUCGGACCUCUCCUUAAUGGGAGCUAGCGGAUGAAGUGAUGCAACACUGGAGCCGCUGGGAACUAAUUUGUAUGCGAAAGUAUAUUGAUUAGUUUUGGAGUACUCGUGGUCG
Summary of the method: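 Fitness was computed with DiMSum as the error-weighted combination of replicate fold changes, kanamycin versus none, each normalised to wild type. The library randomised all eight intron nucleotides of the P1ex region, with the intron placed in the knt kanamycin-resistance gene on pET-22b(+) in E. coli BL21(DE3). Six replicate transformations were grown overnight at 37°C or 30°C on LB agar with or without 25 μg/mL kanamycin, plus 100 μg/mL carbenicillin, 50 μM IPTG and 0.2% rhamnose. Pooled colonies were amplicon-sequenced on an Illumina HiSeq 2500.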

Sequence	self-splicing fitness (ln) (30 °C)	self-splicing fitness (ln) (37 °C)
AACGAGCAAUAUUACGAUCC	-2.01 ± 0.38	–
AACGAGCAAUAUUACGCAAU	-4.26 ± 0.36	-2.45 ± 0.27
AACGAGCAAUAUUACGCAUC	-3.65 ± 0.3	-0.331 ± 0.18
AACGAGCAAUAUUACGCCAG	-4.01 ± 0.37	-1.56 ± 0.32
AACGAGCAAUAUUACGCGUC	-3.01 ± 0.22	-2.85 ± 0.38
AACGAGCAAUAUUACGCUAC	–	-1.86 ± 0.31
AACGAGCAAUAUUACGGCCA	-3.21 ± 0.18	-1.37 ± 0.13
AACGAGCAAUAUUACGGGCC	-4.29 ± 0.39	-3.18 ± 0.47
AACGAGCAAUAUUACGUCAU	-2.98 ± 0.1	-2.44 ± 0.13
AACGAGCAAUAUUACGUGUC	-2.08 ± 0.11	-2.17 ± 0.23
AACGAGCAAUAUUACGUUAA	-3.45 ± 0.36	-2.2 ± 0.24
AACGAGCAAUAUUACGUUCA	-2.32 ± 0.17	-1.87 ± 0.23
AACUAGCAAUAUUACGAAAU	-2.01 ± 0.09	-0.94 ± 0.1
AACUAGCAAUAUUACGAACC	-0.5 ± 0.2	-0.373 ± 0.21
AACUAGCAAUAUUACGAGAU	-2.52 ± 0.13	-1.65 ± 0.14
AACUAGCAAUAUUACGAGCC	-0.792 ± 0.47	-1.17 ± 0.34
AACUAGCAAUAUUACGCAAG	-3.14 ± 0.14	-1.77 ± 0.15
AACUAGCAAUAUUACGCACU	-0.218 ± 0.084	-0.0139 ± 0.11
AACUAGCAAUAUUACGCAUC	-2.73 ± 0.14	-2.28 ± 0.22
AACUAGCAAUAUUACGCCAA	-2.83 ± 0.21	-1.63 ± 0.16
AACUAGCAAUAUUACGCCGG	-1.63 ± 0.14	-1.19 ± 0.17
AACUAGCAAUAUUACGCCUG	-1.08 ± 0.12	-1.43 ± 0.13
AACUAGCAAUAUUACGCGAG	-1.82 ± 0.11	-0.501 ± 0.12
AACUAGCAAUAUUACGCGUC	-1.95 ± 0.12	-1.65 ± 0.14

Sequence	self-splicing fitness (ln) (30 °C)	self-splicing fitness (ln) (37 °C)
AACUAGCAAUAUUACGGAUG	-2.26 ± 0.067	-1.03 ± 0.072
AACUAGCAAUAUUACGGCCU	-0.472 ± 0.09	-0.0804 ± 0.095
AACUAGCAAUAUUACGGUCG	-0.193 ± 0.062	0.193 ± 0.085
AACUAGCAAUAUUACGGUGA	-1.58 ± 0.073	-0.833 ± 0.099
AACUAGCAAUAUUACGUAAU	-1.82 ± 0.098	-0.948 ± 0.099
AACUAGCAAUAUUACGUAGC	-4.04 ± 0.26	-2.12 ± 0.21
AACUAGCAAUAUUACGUCGC	-2.63 ± 0.11	-1.08 ± 0.14
AACUAGCAAUAUUACGUGGU	-3.36 ± 0.16	-2.86 ± 0.23
AACUAGCAAUAUUACGUUGC	-3.47 ± 0.17	-1.9 ± 0.22
AACUAGCAAUAUUACGUUGU	-3.51 ± 0.13	-2.29 ± 0.12
AAGAAGCAAUAUUACGACUC	0.456 ± 0.13	0.487 ± 0.18
AAGAAGCAAUAUUACGAUAG	-3.6 ± 0.28	-1.87 ± 0.2
AAGAAGCAAUAUUACGCAAA	-2.71 ± 0.24	-0.539 ± 0.16
AAGAAGCAAUAUUACGCAAC	-1.53 ± 0.12	-2.1 ± 0.18
AAGAAGCAAUAUUACGCACA	-0.267 ± 0.082	-0.233 ± 0.097
AAGAAGCAAUAUUACGCUCC	-2.37 ± 0.2	-0.643 ± 0.18
AAGAAGCAAUAUUACGGAAG	-2.77 ± 0.094	-1.68 ± 0.11
AAGAAGCAAUAUUACGGCAA	-0.128 ± 0.096	-0.201 ± 0.13
AAGAAGCAAUAUUACGGCGA	-0.584 ± 0.071	-0.285 ± 0.088
AAGAAGCAAUAUUACGGGGA	-3.37 ± 0.29	-2.18 ± 0.17
AAGAAGCAAUAUUACGGGGU	-4.04 ± 0.29	-2.64 ± 0.2
AAGAAGCAAUAUUACGGUAU	-2.08 ± 0.073	-0.974 ± 0.084
AAGAAGCAAUAUUACGGUCU	-0.564 ± 0.066	-0.233 ± 0.1
AAGAAGCAAUAUUACGGUGU	-1.99 ± 0.072	-1.65 ± 0.086
